Results: article PMC3557803

How the values were obtained:
Assay in all cases: UV-visible absorbance assay of deamination
Type in all cases: biochemical, Martinezella rhizogenes
Settings in all cases: 20 mM HEPES pH 7.7
[1] = substrate: C[C@H](O)C(=O)C1=Nc2c(nc(N)[nH]c2=O)NC1
[2] = substrate: C[C@H](O)[C@H](O)C1=Nc2c(nc(N)[nH]c2=O)NC1
[3] = substrate: C[C@H](O)[C@H](O)c1cnc2[nH]c(N)nc(=O)c2n1
[4] = substrate: Nc1nc2[nH]c(=O)cnc2c(=O)[nH]1
[5] = substrate: Nc1nc2c(c(=O)[nH]1)N=C(CO)CN2
[6] = substrate: Nc1nc2c(c(=O)[nH]1)N=C([C@H](O)[C@H](O)CO)CN2
[7] = substrate: Nc1nc2nc(C(=O)O)cnc2c(=O)[nH]1
[8] = substrate: Nc1nc2ncc(C(=O)O)nc2c(=O)[nH]1
[9] = substrate: Nc1nc2ncc(C=O)nc2c(=O)[nH]1
[10] = substrate: Nc1nc2ncc(CNc3ccc(C(=O)N[C@@H](CCC(=O)O)C(=O)O)cc3)nc2c(=O)[nH]1
[11] = substrate: Nc1nc2ncc(CO)nc2c(=O)[nH]1
[12] = substrate: Nc1nc2ncc([C@H](O)[C@H](O)CO)nc2c(=O)[nH]1
[13] = substrate: Nc1nc2nccnc2c(=O)[nH]1

B1: Arad3529 (Rhizobium rhizogenes K84) (protein)
chain: MSYSFMSPPNAARFVLSNATVPAVTVVGFTGPSSEGLMKADIVVADGLIKDILPAGTAPAELAKADMRDGMVWPTFADMHTHLDKGHIWERRANPDGSFMGALDAVRSDREANWSAADVRKRMEFSLRAAYAHGTSLIRTHLDSLAPQHRISFEVFSEVREAWKDKIALQAVALFPLDFMVDDAFFADLTTVVREAGGLLGGVTQMNPDIDAQLDKLIRAAAANGLDIDLHVDETEDREVLTLKAIAAAVLRNGFTGKVTAGHCCSLARQDENVAAATIDLVAKAGISIVALPMCNMYLQDRHPGRTPRWRGVTLLHELAAAGVPTAVASDNTRDPFYAYGDLDPVEVFREAVRILHLDHPLDTAARVVTTSPASILGRPDIGRIAVGGPADLVLFSARRWSEFLSRPQSDRVVLRKGKVIDRSLPDYRELDTVIGA
[1]
  Km: 22 ± 9 µM
  kcat: 2.9 ± 0.3 s⁻¹
  kcat/Km: 130000 M⁻¹ s⁻¹
[2]
  Km: 93 ± 13 µM
  kcat: 0.09 ± 0.007 s⁻¹
  kcat/Km: 930 M⁻¹ s⁻¹
[3]
  Km: 47 ± 9 µM
  kcat: 46 ± 4 s⁻¹
  kcat/Km: 1e+06 M⁻¹ s⁻¹
[4]
  Km: 5.7 ± 0.5 µM
  kcat: 1.6 ± 0.1 s⁻¹
  kcat/Km: 280000 M⁻¹ s⁻¹
[5]
  Km: 37 ± 7 µM
  kcat: 1.2 ± 0.1 s⁻¹
  kcat/Km: 33000 M⁻¹ s⁻¹
[6]
  Km: 200 ± 100 µM
  kcat: 0.036 ± 0.008 s⁻¹
  kcat/Km: 260 M⁻¹ s⁻¹
[7]
  Km: 13 ± 1 µM
  kcat: 48 ± 2 s⁻¹
  kcat/Km: 3.7e+06 M⁻¹ s⁻¹
[8]
  Km: 27 ± 2 µM
  kcat: 110 ± 3 s⁻¹
  kcat/Km: 4e+06 M⁻¹ s⁻¹
[9]
  Km: 12 ± 2 µM
  kcat: 64 ± 12 s⁻¹
  kcat/Km: 5.2e+06 M⁻¹ s⁻¹
[10]
  Km: 50 ± 10 µM
  kcat: 6.4 ± 0.5 s⁻¹
  kcat/Km: 130000 M⁻¹ s⁻¹
[11]
  Km: 23 ± 3 µM
  kcat: 28 ± 1 s⁻¹
  kcat/Km: 1.2e+06 M⁻¹ s⁻¹
[12]
  Km: 61 ± 7 µM
  kcat: 19 ± 1 s⁻¹
  kcat/Km: 310000 M⁻¹ s⁻¹
[13]
  Km: 39 ± 4 µM
  kcat: 131 ± 4 s⁻¹
  kcat/Km: 3.3e+06 M⁻¹ s⁻¹
